Reference: patent US20120058906A1

Tests used:
[1] = biological target: rHuman P-Cadherin/Fc Chimera, CF (R&D Systems Cat#861-PC) (human) (UniProt P22223); assay: ECL (MSD multi-spot) screen, antigen spotted on plate, Fab at 0.34 uM; blank spot 356
[2] = biological target: rHuman HGF R/c-MET/Fc Chimera, CF (R&D Systems Cat#358-MT/CF) (human) (UniProt P08581); assay: as above
[3] = biological target: rHuman ErbB2/Fc Chimera, CF (R&D Systems Cat#1129-ER) (human) (UniProt P04626); assay: as above
[4] = biological target: rHuman Erythropoietin R/Fc Chimera, CF (R&D Systems Cat#963-ER) (human) (UniProt P19235); assay: as above
rHuman Erythropoietin R/Fc Chimera, CF (R&D Systems Cat#963-ER) (human), sequence (P19235 25-250, change not shown): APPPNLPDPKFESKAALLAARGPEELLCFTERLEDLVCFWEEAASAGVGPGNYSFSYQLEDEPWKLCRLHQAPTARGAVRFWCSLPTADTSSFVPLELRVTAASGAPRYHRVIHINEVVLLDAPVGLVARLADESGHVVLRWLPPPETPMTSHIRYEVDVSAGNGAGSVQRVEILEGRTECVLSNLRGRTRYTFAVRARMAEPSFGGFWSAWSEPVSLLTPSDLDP

[5] = biological target: rHuman IGF-1 sR, CF (R&D Systems Cat#391-GR) (human) (UniProt P08069); assay: as above
[6] = biological target: rHuman Notch-1/Fc Chimera, CF (R&D Systems Cat#3647-TK) (human) (UniProt P46531); assay: as above
[7] = biological target: rHuman P-Cadherin/Fc Chimera, CF (R&D Systems Cat#861-PC) (human) (UniProt P22223); assay: ECL (MSD multi-spot), Fab 340 nM; blank 554
[8] = biological target: rHuman CD44/Fc Chimera, CF (R&D Systems Cat#3660-CD) (human) (UniProt P16070); assay: ECL (MSD multi-spot), Fab 340 nM; blank 554
[9] = biological target: rHuman HGF R/c-MET/Fc Chimera, CF (R&D Systems Cat#358-MT/CF) (human) (UniProt P08581); assay: ECL (MSD multi-spot), Fab 340 nM; blank 554
[10] = biological target: rHuman ErbB2/Fc Chimera, CF (R&D Systems Cat#1129-ER) (human) (UniProt P04626); assay: ECL (MSD multi-spot), Fab 340 nM; blank 554
[11] = biological target: rHuman Erythropoietin R/Fc Chimera, CF (R&D Systems Cat#963-ER) (human) (UniProt P19235); assay: ECL (MSD multi-spot), Fab 340 nM; blank 554
[12] = biological target: rHuman EGF R/Fc Chimera, CF (R&D Systems Cat#344-ER) (human) (UniProt P00533); assay: ECL (MSD multi-spot), Fab 340 nM; blank 554
[13] = biological target: rHuman IGF-1 sR (IGF-1 sR), CF (R&D Systems Cat#391-GR) (human) (UniProt P08069); assay: ECL (MSD multi-spot), Fab 340 nM; blank 554
[14] = biological target: rHuman Notch-1/Fc Chimera, CF (R&D Systems Cat#3647-TK) (human) (UniProt P46531); assay: ECL (MSD multi-spot), Fab 340 nM; blank 554
[15] = biological target: rHuman P-Cadherin/Fc Chimera, CF (R&D Systems Cat#861-PC) (human) (UniProt P22223); assay: ECL (MSD multi-spot), Fab […]; blank 162
[16] = biological target: rHuman CD44/Fc Chimera, CF (R&D Systems Cat#3660-CD) (human) (UniProt P16070); assay: ECL (MSD multi-spot), Fab […]; blank 162
[17] = biological target: rHuman HGF R/c-MET/Fc Chimera, CF (R&D Systems Cat#358-MT/CF) (human) (UniProt P08581); assay: ECL (MSD multi-spot), Fab […]; blank 162
[18] = biological target: rHuman ErbB2/Fc Chimera, CF (R&D Systems Cat#1129-ER) (human) (UniProt P04626); assay: ECL (MSD multi-spot), Fab […]; blank 162
[19] = biological target: rHuman Erythropoietin R/Fc Chimera, CF (R&D Systems Cat#963-ER) (human) (UniProt P19235); assay: ECL (MSD multi-spot), Fab […]; blank 162
[20] = biological target: rHuman EGF R/Fc Chimera, CF (R&D Systems Cat#344-ER) (human) (UniProt P00533); assay: ECL (MSD multi-spot), Fab […]; blank 162
[21] = biological target: rHuman IGF-1 sR (IGF-1 sR), CF (R&D Systems Cat#391-GR) (human) (UniProt P08069); assay: ECL (MSD multi-spot), Fab […]; blank 162
[22] = biological target: rHuman Notch-1/Fc Chimera, CF (R&D Systems Cat#3647-TK) (human) (UniProt P46531); assay: ECL (MSD multi-spot), Fab […]; blank 162
[23] = biological target: rHuman P-Cadherin/Fc Chimera, CF (R&D Systems Cat#861-PC) (human) (UniProt P22223); assay: ECL (MSD multi-spot), Fab 170 nM; blank 262
[24] = biological target: rHuman CD44/Fc Chimera, CF (R&D Systems Cat#3660-CD) (human) (UniProt P16070); assay: ECL (MSD multi-spot), Fab 170 nM; blank 262
[25] = biological target: rHuman HGF R/c-MET/Fc Chimera, CF (R&D Systems Cat#358-MT/CF) (human) (UniProt P08581); assay: ECL (MSD multi-spot), Fab 170 nM; blank 262
[26] = biological target: rHuman ErbB2/Fc Chimera, CF (R&D Systems Cat#1129-ER) (human) (UniProt P04626); assay: ECL (MSD multi-spot), Fab 170 nM; blank 262
[27] = biological target: rHuman Erythropoietin R/Fc Chimera, CF (R&D Systems Cat#963-ER) (human) (UniProt P19235); assay: ECL (MSD multi-spot), Fab 170 nM; blank 262
[28] = biological target: rHuman EGF R/Fc Chimera, CF (R&D Systems Cat#344-ER) (human) (UniProt P00533); assay: ECL (MSD multi-spot), Fab 170 nM; blank 262

ECL signal [1]: 935
ECL signal [2]: 914
ECL signal [3]: 900
ECL signal [4]: 907
ECL signal [5]: 871
ECL signal [6]: 912
ECL signal [7]: 1160 ECL signal
ECL signal [8]: 959 ECL signal
ECL signal [9]: 1240 ECL signal
ECL signal [10]: 1230 ECL signal
ECL signal [11]: 1260 ECL signal
ECL signal [12]: 1210 ECL signal
ECL signal [13]: 1040 ECL signal
ECL signal [14]: 1210 ECL signal
ECL signal [15]: 421 ECL signal
ECL signal [16]: 522 ECL signal
ECL signal [17]: 607 ECL signal
ECL signal [18]: 866 ECL signal
ECL signal [19]: 494 ECL signal
ECL signal [20]: 528 ECL signal
ECL signal [21]: 646 ECL signal
ECL signal [22]: 649 ECL signal
ECL signal [23]: 744 ECL signal
ECL signal [24]: 660 ECL signal
ECL signal [25]: 757 ECL signal
ECL signal [26]: 964 ECL signal
ECL signal [27]: 790 ECL signal
ECL signal [28]: 826 ECL signal
Substance: Fab VH4-34_IGHD7-27*01_IGHJ4*01 & V4-6_IGLJ4*01
